Reference: patent US7183377 (US Dept. of Health and Human Services, dated 2007)

Target: T1, Wingless (Wg), the Drosophila homolog of Wnt-1 (Drosophila, UniProt P09615 18-468)
T1 construct: mature; Used as unpurified conditioned medium in the ELISAs
T1 sequence (looked up): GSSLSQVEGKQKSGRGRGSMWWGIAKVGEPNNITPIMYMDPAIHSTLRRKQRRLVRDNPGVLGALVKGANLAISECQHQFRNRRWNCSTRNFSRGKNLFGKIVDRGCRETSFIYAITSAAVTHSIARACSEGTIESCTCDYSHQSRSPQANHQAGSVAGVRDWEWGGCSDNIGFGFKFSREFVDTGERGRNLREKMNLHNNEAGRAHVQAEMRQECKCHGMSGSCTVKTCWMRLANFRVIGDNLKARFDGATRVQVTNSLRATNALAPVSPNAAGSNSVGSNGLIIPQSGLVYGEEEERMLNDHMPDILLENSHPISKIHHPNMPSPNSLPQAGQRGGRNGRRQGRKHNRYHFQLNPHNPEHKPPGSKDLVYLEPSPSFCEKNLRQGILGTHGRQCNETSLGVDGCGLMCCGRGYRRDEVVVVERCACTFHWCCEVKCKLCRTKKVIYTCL
Experiment: ELISA: FRP coated at 100 ng/well, Wg-containing S2 conditioned medium, detection with anti-Wg antibody
Source text: As an alternative, cell-free systems to study the binding of FRP and Wnts were developed. These systems have the advantage of simplicity, as the profile of endogenous Frizzled/FRP/Wnt expression would not be an issue. Moreover, experiments now can be performed with purified recombinant FRP. One model system disclosed in detail below makes use of an ELISA type of format. Microtiter wells are first coated with purified FRP, and then blocked with a large excess of bovine serum albumin (BSA). To minimize the problems associated with solubilizing Wnts, initial studies focused on studying FRP binding to Wingless (Wg) because an expression system is available that releases Wg into conditioned medium. Van Leeuwen, et al., Nature 368:342–344 (1994). Although expression of a heat shock-Wg construct in transfected S2 insect cells results in only a small fraction of recombinant Wg in the media, it is sufficient for binding studies and obviates the need for detergents or other agents to extract the protein from cell surfaces or extracellular matrix. […] After washing, the wells are sequentially incubated with antibody to Wg, secondary antiserum (against the Wg antibody) conjugated to alkaline phosphatase, and p-nitrophenol phosphate. […]
FIG. 13 illustrates the binding of FRP and Wg. […] Color development, monitored at 405 nm, was indicative of Wg binding in the well.

binding result: binds
B1: human Frizzled-related protein (FRP) (receptor)
chain: VGSASEYDYVSFQSDIGPYQSGRFYTKPPQCVDIPADLRLCHNVGYKKMVLPNLLEHETMAEVKQQASSWVPLLNKNCHAGTQVFLCSLFAPVCLDRPIYPCRWLCEAVRDSCEPVMQFFGFYWPEMLKCDKFPEGDVCIAMTPPNATEASKPQGTTVCPPCDNELKSEAIIEHLCASEFALRMKIKEVKKENGDKKIVPKKKKPLKLGPIKKKDLKKLVLYLKNGADCPCHQLDNLSHHFLIMGRKVKSQYLLTAIHKWDKKNKEFKNFMKKMKNHECPTFQSVFK
notes: The natural protein purified from M426 medium began 11 residues further downstream (residue 38), with a second N-terminus three residues later; The N-terminus of the recombinant protein is not reported; In the ELISAs it was untagged full-length FRP purified from the medium of MDCK cells transfected with pcDNA3.1(+); also called hFRP; recombinant FRP
